For one data set, the system named is 293T cells. Nature of the data set: TOXILIGHT cytotoxicity assay in stable doxycycline-inducible poly-Aβ 293T cell lines. Type of data set: cell-based. To be noted: 72-96 hours following doxycycline induction. An excerpt: Similar to the poly-Aβ (Aβ40 or Aβ42_1X/4X/6X/8X) expression constructs in yeast (see Example 1), a poly-Aβ toxicity model was developed in mammalian cells. Stable cell lines with chromosomally-integrated tetracycline (doxycycline)-inducible […] transgenes (Aβ42-4X, Aβ42-6X, Aβ40-4X, Aβ40-6X and Aβ42-Arctic-4X) linked to an N-terminal insulin signal peptide were generated (FIGS. 13A-13B). These expression constructs were generated using the pLix402 lentiviral plasmid (FIG. 12). The poly-Aβ constructs were individually transfected into 293T cells along with the lentiviral packaging plasmid psPAX and the viral envelope-expressing plasmid mMD2.G using LIPOFECTAMINE® 2000 (Invitrogen) transfection reagent to generate lentivirus containing the poly-Aβ transgene. The virus was harvested from the supernatant of transfected 293T cells 2 and 3 days post-transfection and subsequently purified and concentrated using the LENTI-X™ Maxi Purification kit (Clontech) according to the manufacturer's instructions.
To generate stable cells harboring the expression transgene for the poly-Aβ constructs, 293T cells were infected using POLYBRENE® infection reagent (Sigma Aldrich), which is used to introduce retroviral vectors into mammalian cells. Infected cells were then selected using puromycin (2-10 μg/ml). Infected cells harboring the transgene survive this selection pressure whereas the control cells without the transgene die in 2-3 days. Aliquots of the selected cells were frozen in liquid nitrogen or maintained and propagated for further applications.
Expression of Aβ peptide from these stable cell lines was measured in the culture supernatant 72-96 hours following doxycycline induction (FIG. 13D). Toxicity was measured 72-96 hours following doxycycline induction using a TOXILIGHT™ cytotoxicity assay (Lonza) as described in Example 2.

Data set [1] concerns Rat embryonic cortical neurons. Briefly: […] ATP viability assay in neurons infected with lentiviral poly-Aβ constructs. Conditions: three weeks post doxycycline-induction (2 μg/ml). In kind it is cell-based. From the text: Rat embryonic cortical neurons were infected with lentiviral poly-Aβ expression constructs to model poly-Aβ toxicity. Tetracycline (doxycycline)-inducible poly-Aβ (Aβ42-4X, Aβ42-6X, Aβ40-4X, Aβ40-6X, and Aβ42-Arctic-4X) viral constructs described in Example 5 were used to express poly-Aβ constructs in rat cortical neurons. In each expression construct, the poly-Aβ coding sequence is linked to an N-terminal insulin signal peptide. The poly-Aβ expression plasmids were packaged in lentiviral particles, which were generated by 293T cells as described in Example 3.
Rat cortical neurons were enriched from cortices dissected out of embryonic (E18) rat brains and enriched in adherent monolayer culture as described in Example 3. Purified lentiviral preparations at different MOI were used to infect these cortical neurons to express poly-Aβ transgenes. Three days post-infection, expression of poly-Aβ was induced by adding doxycycline (2 μg/ml) to the infected cultures.

B1: Aβ42-Arctic-4X: doxycycline-inducible construct, insulin signal peptide and four copies of Aβ42 E22G, SEQ ID NO:37 (protein)
chain: MALWMRLLPLLALLALWGPDPAAADAEFRHDSGYEVHHQKLVFFAGDVGSNKGAIIGLMVGGVVIARRDAEFRHDSGYEVHHQKLVFFAGDVGSNKGAIIGLMVGGVVIAKRDAEFRHDSGYEVHHQKLVFFAGDVGSNKGAIIGLMVGGVVIARRDAEFRHDSGYEVHHQKLVFFAGDVGSNKGAIIGLMVGGVVIA
Take B1: in the data set on 293T cells, the “Aβ peptide-mediated cytotoxic effect (adenylate kinase release), rank order” value is “Aβ42-6X≧Aβ42-Arctic-4X≧Aβ42-4X≧AB40-6X≧Aβ40-4X”. The “cytotoxicity (viability by ATP levels)” value in data set [1] was “profound cytotoxicity compared to Aβ40-4X”.

(Values after patent US9822156B2, “Amyloid beta expression constructs and uses therefor” (Whitehead Institute for Biomedical Research, priority 2014, dated 2017).)
